Results reported in article PMC8519434, “The structure of nontypeable Haemophilus influenzae SapA in a closed conformation reveals a constricted ligand-binding cavity and a novel RNA binding motif” (PLoS ONE, 2021).

Key:
SapA = target: T1, SapA (Haemophilus influenzae, UniProt Q4QL73); assay: ITC (stoichiometry fixed to […]), crystal structure by hemin soaking ([…] Å), native PAGE shift; format: binding
T1 construct: residues 33 to 560, without the predicted signal peptide

[1] = system: SapA R101S (nontypeable Haemophilus influenzae 86-028NP); assay: EMSA (agarose, decrease of rRNA bands)
[2] = system: SapA Q85S R101S (nontypeable Haemophilus influenzae 86-028NP); assay: EMSA (agarose, decrease of rRNA bands)
[3] = target: T2, SapA (nontypeable Haemophilus influenzae 86-028NP) (UniProt Q4QL73); assay: EMSA (agarose, decrease of rRNA bands)
T2 sequence: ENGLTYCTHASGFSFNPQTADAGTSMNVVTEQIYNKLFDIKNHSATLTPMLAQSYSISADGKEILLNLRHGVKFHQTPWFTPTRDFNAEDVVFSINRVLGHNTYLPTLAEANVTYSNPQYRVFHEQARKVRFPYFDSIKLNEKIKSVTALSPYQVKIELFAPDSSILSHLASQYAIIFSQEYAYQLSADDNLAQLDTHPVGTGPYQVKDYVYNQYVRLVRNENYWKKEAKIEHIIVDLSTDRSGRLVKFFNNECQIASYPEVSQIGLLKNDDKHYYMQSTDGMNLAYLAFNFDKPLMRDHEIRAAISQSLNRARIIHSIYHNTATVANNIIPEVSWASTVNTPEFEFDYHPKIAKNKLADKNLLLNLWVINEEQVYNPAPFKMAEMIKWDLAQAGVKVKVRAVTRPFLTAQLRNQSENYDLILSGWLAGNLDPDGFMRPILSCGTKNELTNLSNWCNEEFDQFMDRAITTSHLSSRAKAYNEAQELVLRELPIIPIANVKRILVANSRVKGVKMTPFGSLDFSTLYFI

Compound | Kd (SapA) [µM] | Kd [1] [µM] | Kd [2] [µM] | Kd [3] [µM]
C=CC1=C(C)C2=Cc3c(C=C)c(C)c4[n]3[Fe][n]3c(c(C)c(CCC(=O)O)c3=CC3=NC(=C4)C(C)=C3CCC(=O)O)=CC1=N2 [heme] | 282 ± 18.3 |  |  | 
E. coli DH5alpha rRNA (16S + 23S bands of total RNA) |  | 7.7 | 23 | 4.4
